Residue numbers refer to the chain shown, from its start. Names and notes keep the numbering of the source. Like-named read-outs stand apart in the source and are kept apart here.
B1: Murine mAb333 (antibody, V domains shown)
VH: QVQLKESGPGLVAPSQSLSITCTVSGFSLTSYGVHWVRQPPGKGLEWLGVIWAGGSTNYNSALMSRLSISKDNSKSQVVLKMNSLQTDDTAMYYCAKPYGNSAMDYWGQGTSVTVSS
VL: DILMTQSHKFMSTSVGDTVSITCKASQDVGIVVAWYQQKPGQSPKLLIYWASIRHTGVPDRFTGSGSGTDFTLTISNVQSEDLADYFCQQYSNYPLYTFGGGTKLEIK
notes: Murine hybridoma mAb; also called mu333; Mu333
B2: hu333-3C2 Fab (Fab, V domains shown)
VH: EVQLVESGGGLVQPGGSLRLSCAVSGFSLTSYGVHWVRQAPGKGLEWVAVIWAGGSTNYADSVKGRFTISKDNSKNTVYLQMNSLRAEDTAVYYCAKPYGNSAMDYWGQGTLVTVSS
VL: DIQMTQSPSSLSASVGDRVTITCKASQDVGIVVAWYQQKPGKAPKLLIYWASIRHTGVPSRFSGSGSGTEFTLTISSLQPDDFATYYCQQYSNYPLYTFGQGTKVEIK
notes: Human Fab format; constant parts not restated
B3: hu333-4B2 Fab (Fab, V domains shown)
VH: B2 VH with N73T, N101T
VL: B2 VL
notes: Human IgG1 Fab format: Vh fused to human IgG1-CH1 with C-terminal His6 tag, Vk fused to the constant region of kappa chain
B4: hu333-4A2 Fab (Fab, V domains shown)
VH: B2 VH with A60V, S74A, N101T
VL: B2 VL
notes: as for B3
B5: hu333-3A2 Fab (Fab, V domains shown)
VH: B2 VH with A60V, F67L, S74A
VL: B2 VL
notes: as for B2
B6: hu333-1A Fab (Fab, V domains shown)
VH: B2 VH with A60N, D61S, S62A, V63L, K64M, G65S, F67L, S74A, T77S
VL: B2 VL with S10T, V105L
notes: Human Fab format: Vh joined to human IgG2 CH1 with C232S and C233S (Kabat numbering) and a C-terminal 8xHis tag; Vk joined to the constant region of human kappa chain
B7: hu333-2B Fab (Fab, V domains shown)
VH: B2 VH with A60V, S74A, T77S
VL: B2 VL with S10T, V105L
notes: Human Fab format, His-tagged; constant parts not restated (as for hu333-1A)
B8: hu333-3H2 Fab (Fab, V domains shown)
VH: B2 VH with N73T
VL: B2 VL
notes: as for B2

Experiments:
[1] = biological target: T1, human PD-L1, full length, expressed on cells (human, UniProt Q9NZQ7 19-290); assay: FACS on HEK293/PD-L1 cells
T1 construct: also called HEK293/PD-L1 cells; HEK293/OS8/PD-L1 cells
Method: (§1) Briefly, 50-200 nanograms of PD-L1/His were diluted in 50 microliters of PBS and coated in each well of 96-well ELISA plates (JinCanHua, Shenzhen, China). After blocking with 3% bovine serum albumin in TBST (20 mM Tris, 150 mM NaCl, 0.05% Tween20, pH7.5) and incubating with culture supernatants of hybridoma clones, the HRP-conjugated horse anti-mouse IgG antibody (Cat. No. 7076S, Cell Signaling Technology) and tetramethylbenzidine (TMB) (Cat. No. PA107-01, TianGen, Beijing, China) were used to detect binding signals by a plate reader (PHREAstar, BMG Labtech, Germany) as light absorbance at 450 nm. The ELISA-positive clones were further verified by fluorescence-activated cell sorting (FACS). PD-L1 expression cells, HEK293/PD-L1 (10⁵ cells/well), were incubated with supernatants from hybridoma clones in V-bottom 96-well plates (Cat. No. 3897, Corning). The cell surface bound PD-L1 antibodies were detected with Dylight 649-conjugated goat anti-mouse IgG antibody (Cat. No. 405312, Biolegend, San Diego, Calif., USA) and cell fluorescence was monitored in a Guava EasyCyte 8HT flow cytometer (Millipore, USA).
(§2) The binding activities of the purified monoclonal antibodies were evaluated in ELISA and FACS assays as described in previous sections. The dose-dependent binding curves in ELISA and FACS were used to compare mAb potency.

[2] = biological target: T1, human PD-L1, full length, expressed on …; assay: cell-based or functional assay
[3] = biological target: T2, human PD-L1-ECD/His (human, UniProt Q9NZQ7 19-238); assay: ELISA on coated PD-L1/His
T2 construct: Expressed in 293-F cells; also called PD-L1/His; human PD-L1/His
Method: as §1, §2

[4] = biological target: T1, human PD-L1, full length, expressed on …; assay: FACS competition with biotin-PD-1/Fc on HEK293/PD-L1 cells
Source text: Using this method, we evaluated functional strength of anti-PD-L1 mAbs.

[5] = biological target: T1, human PD-L1, full length, expressed on …; assay: FACS competition with biotin-CD80/Fc on HEK293/PD-L1 cells
[6] = biological target: T1, human PD-L1, full length, expressed on …; assay: cell-based or functional assay; remark: listed apart in the source
[7] = biological target: T2, human PD-L1-ECD/His; assay: SPR (BIAcore T-200), human PD-L1/His on CM5 chip, Fab injected
Method: (§3) For affinity determinations of anti-PD-L1 Fabs, SPR assays were performed using BIAcore™ T-200 (GE Life Sciences). Briefly, human PD-L1/His was coupled to an activated CM5 biosensor chip (Cat. No. BR100530, GE Life Sciences) to achieve approximately 100-200 response units (RU), followed by blocking un-reacted groups with 1M ethanolamine. A serial dilutions of 0.12 nM to 90 nM Fab samples were injected, mixed into the SPR running buffer (10 mM HEPES, 150 mM NaCl, 0.05% Tween20, pH7.4) at 30 μL/minute, and binding responses on human PD-L1/His were calculated by substracting of RU from a blank flow-cell. Association rates (kₒₙ) and dissociation rates (koff) were calculated using the one-to-one Langmuir binding model (BIA Evaluation Software, GE Life Sciences). The equilibrium dissociation constant (Kd) was calculated as the ratio koff/kₒₙ.
(§4) For affinity determinations of anti-PD-L1 Fabs, SPR assays were conducted using BIAcore™ T-200 instrument (GE Life Sciences, Shanghai, China) as described earlier. Association rates (kₒₙ) and dissociation rates (koff) were calculated using the one-to-one Langmuir binding model (BIA Evaluation Software, GE Life Sciences). The equilibrium dissociation constant (Kd) was calculated as the ratio koff/kₒₙ.

[8] = biological target: T1, human PD-L1, full length, expressed on …; assay: FACS competition with biotin-PD-1/Fc on HEK293/PD-L1 cells; remark: listed apart in the source
[9] = biological target: T1, human PD-L1, full length, expressed on …; assay: FACS competition with biotin-CD80/Fc on HEK293/PD-L1 cells; remark: listed apart in the source
[10] = biological target: T1, human PD-L1, full length, expressed on …; assay: cell-based or functional assay; remark: listed apart in the source
[11] = biological target: T1, human PD-L1, full length, expressed on …; assay: cell-based or functional assay; remark: listed apart in the source
[12] = biological target: T2, human PD-L1-ECD/His; assay: SPR (BIAcore T-200), human PD-L1, Fab injected
Method: as §3, §4

[13] = biological target: T1, human PD-L1, full length, expressed on …; assay: FACS competition with biotin-CD80/Fc on HEK293/PD-L1 cells; remark: listed apart in the source
[14] = biological target: T3, cynomolgus monkey PD-L1/His (cynomolgus monkey (Macaca fascicularis), UniProt G7PSE7 19-238); assay: SPR (BIAcore T-200), monkey PD-L1, Fab injected
T3 construct: extracellular domain; Said to be expressed and purified in a similar way to the human PD-L1/His (PD-L1-ECD/His); not shown: His tag

[15] = biological target: T1, human PD-L1, full length, expressed on …; assay: FACS competition with biotin-PD-1/Fc on HEK293/PD-L1 cells; remark: listed apart in the source
[16] = biological target: T1, human PD-L1, full length, expressed on …; assay: cell-based or functional assay; remark: listed apart in the source
[17] = biological target: T2, human PD-L1-ECD/His; assay: SPR (BIAcore T-200), human PD-L1/His on CM5 chip, Fab injected; remark: listed apart in the source
Method: as §3

[18] = biological target: T1, human PD-L1, full length, expressed on …; assay: FACS competition with biotin-CD80/Fc on HEK293/PD-L1 cells; remark: listed apart in the source

T1 sequence (Q9NZQ7 19-290 limits assumed): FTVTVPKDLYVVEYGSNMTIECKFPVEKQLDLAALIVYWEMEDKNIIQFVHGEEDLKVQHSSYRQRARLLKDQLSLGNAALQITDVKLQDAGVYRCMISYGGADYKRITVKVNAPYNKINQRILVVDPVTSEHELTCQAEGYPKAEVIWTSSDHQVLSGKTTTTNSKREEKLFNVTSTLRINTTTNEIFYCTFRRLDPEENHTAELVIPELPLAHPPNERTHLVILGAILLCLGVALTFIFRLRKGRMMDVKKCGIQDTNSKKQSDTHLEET
T3 sequence (G7PSE7 entry or part of it): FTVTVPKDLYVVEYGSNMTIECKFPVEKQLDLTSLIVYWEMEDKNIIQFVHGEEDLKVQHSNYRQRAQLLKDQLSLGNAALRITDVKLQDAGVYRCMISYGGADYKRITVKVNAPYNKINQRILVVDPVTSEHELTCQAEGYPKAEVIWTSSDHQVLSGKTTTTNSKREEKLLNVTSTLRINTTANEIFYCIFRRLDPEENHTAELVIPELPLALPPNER
T2 sequence (Q9NZQ7 19-238): as the sequence (G7PSE7 entry or part of it) above, with T33A, S34A, N62S, Q68R, R82Q, L173F, A185T, I192T, L215H counted along it

Binder | IC50 [4] | Kd [7] | koff [7] | kon [7] | IC50 [8] | Max inhibition [8] | IC50 [9] | Max inhibition [9] | IL-2 release in HuT78/P3Z: IC50 [10] | IL-2 release in HuT78/P3Z: Max inhibition [10] | IL-2 release in HuT78/PD-1: EC50 [10] | IL-2 release in HuT78/PD-1: Top line [10] | further results
B1 | 0.463 µg/mL | – | – | – | – | – | – | – | – | – | – | – | EC50 [1]: 0.099 µg/mL; Inhibition of IL-2 secretion in HuT78/P3Z cells co-cultured with HEK293/PD-L1 cells: IC50 [2]: 0.021 µg/mL; EC50 [3]: 0.036 µg/mL; IC50 [5]: 0.052 µg/mL; IL-2 release in HuT78/PD-1 cells co-cultured with HEK293/OS8/PD-L1 cells: EC50 [6]: 0.092 µg/mL
B2 | – | 8.09 pM | 1.15e-05 s⁻¹ | 1.42e+06 M⁻¹ s⁻¹ | 0.065 µg/mL | 100% | 0.073 µg/mL | 99% | 0.013 µg/mL | 100% | 0.046 µg/mL | 3120 pg/mL | –
B3 | – | 3.5 pM | 1.32e-05 s⁻¹ | 3.78e+06 M⁻¹ s⁻¹ | – | – | – | – | – | – | – | – | IL-2 release in HuT78/P3Z: IC50 [11]: 0.016 µg/mL; IL-2 release in HuT78/PD-1: EC50 [11]: 0.058 µg/mL; Kd [12]: 3.5 pM; koff [12]: 1.32e-05 s⁻¹; kon [12]: 3.78e+06 M⁻¹ s⁻¹; IC50 [13]: 0.062 µg/mL; Kd [14]: 2.5 pM; koff [14]: 8e-06 s⁻¹; kon [14]: 3.2e+06 M⁻¹ s⁻¹; IC50 [15]: 0.053 µg/mL
B4 | – | 2.65 pM | 1.03e-05 s⁻¹ | 3.88e+06 M⁻¹ s⁻¹ | – | – | – | – | – | – | – | – | IL-2 release in HuT78/P3Z: IC50 [11]: 0.005 µg/mL; IL-2 release in HuT78/PD-1: EC50 [11]: 0.05 µg/mL; Kd [12]: 2.65 pM; koff [12]: 1.03e-05 s⁻¹; kon [12]: 3.88e+06 M⁻¹ s⁻¹; IC50 [13]: 0.045 µg/mL; Kd [14]: 2.91 pM; koff [14]: 9.3e-06 s⁻¹; kon [14]: 3.19e+06 M⁻¹ s⁻¹; IC50 [15]: 0.05 µg/mL
B5 | – | 0.17 pM | 2.2e-07 s⁻¹ | 1.28e+06 M⁻¹ s⁻¹ | 0.068 µg/mL | 100% | 0.044 µg/mL | 99% | 0.014 µg/mL | 95% | 0.057 µg/mL | 2550 pg/mL | –
B6 | 0.057 µg/mL | – | – | – | – | – | – | – | – | – | – | – | IL-2 release in HuT78/P3Z: IC50 [16]: 0.012 µg/mL; IL-2 release in HuT78/PD-1: EC50 [16]: 0.066 µg/mL; Kd [17]: 9.88 pM; koff [17]: 1.59e-05 s⁻¹; kon [17]: 1.61e+06 M⁻¹ s⁻¹; IC50 [18]: 0.049 µg/mL
B7 | 0.062 µg/mL | – | – | – | – | – | – | – | – | – | – | – | IL-2 release in HuT78/P3Z: IC50 [16]: 0.011 µg/mL; IL-2 release in HuT78/PD-1: EC50 [16]: 0.054 µg/mL; Kd [17]: 1.54 pM; koff [17]: 2.09e-06 s⁻¹; kon [17]: 1.36e+06 M⁻¹ s⁻¹; IC50 [18]: 0.055 µg/mL
B8 | – | 34.9 pM | 4.61e-05 s⁻¹ | 1.32e+06 M⁻¹ s⁻¹ | 0.071 µg/mL | 100% | 0.064 µg/mL | 99% | 0.014 µg/mL | 100% | 0.057 µg/mL | 3020 pg/mL | –
